Here are results for one molecule from US6506592 (BOARD OF REGENTS OF THE UNIVERSITY OF NEBRASKA, dated 2003).

The experiment concerns the target T1, Staphylococcus protein A (Staphylococcus, UniProt P38507 37-477).
T1 construct: Used to remove antibody-antigen complexes in the immunoprecipitation
Put plainly: immunoprecipitation from T2 plant MI52E extract; residual alpha-glucosidase activity in the supernatant.

Protocol: Tobacco leaf extracts to be used for detection of glycosyl hydrolase antigens were concentrated 3-fold by (NH_4)_2 SO_4 precipitation. […] Proteins (Amersham) were transferred to nitrocellulose and incubated. […] Concentrated plant protein extracts were diluted 1:10 in 10 mM tris-Cl pH 7.0. 50 ul of anti-malA antibodies were added to 200 ul of diluted extract and incubated for 2 hours at 4° C. with gentle agitation. […] Blots were soaked with a chemiluminescent substrate solution (Amersham) and results visualized by autoradiography and quantified by densitometry.
The residual activity remaining in the treated samples was then determined by enzyme assay.

B1: Sulfolobus solfataricus alpha-glucosidase (malA protein), recombinant (enzyme)
chain: MQTIKIYENKGVYKVVIGEPFPPIEFPLEQKISSNKSLSELGLTIVQQGNKVIVEKSLDLKEHIIGLGEKAFELDRKRKRYVMYNVDAGAYKKYQDPLYVSIPLFISVKDGVATGYFFNSASKVIFDVGLEEYDKVIVTIPEDSVEFYVIEGPRIEDVLEKYTELTGKPFLPPMWAFGYMISRYSYYPQDKVVELVDIMQKEGFRVAGVFLDIHYMDSYKLFTWHPYRFPEPKKLIDELHKRNVKLITIVDHGIRVDQNYSPFLSGMGKFCEIESGELFVGKMWPGTTVYPDFFREDTREWWAGLISEWLSQGVDGIWLDMNEPTDFSRAIEIRDVLSSLPVQFRDDRLVTTFPDNVVHYLRGKRVKHEKVRNAYPLYEAMATFKGFRTSHRNEIFILSRAGYAGIQRYAFIWTGDNTPSWDDLKLQLQLVLGLSISGVPFVGCDIGGFQGRNFAEIDNSMDLLVKYYALALFFPFYRSHKATDGIDTEPVFLPDYYKEKVKEIVELRYKFLPYIYSLALEASEKGHPVIRPLFYEFQDDDDMYRIEDEYMVGKYLLYAPIVSKEESRLVTLPRGKWYNYWNGEIINGKSVVKSTHELPIYLREGSIIPLEGDELIVYGETSFKRYDNAEITSSSNEIKFSREIYVSKLTITSEKPVSKIIVDDSKEIQVEKTMQNTYVAKINQKIRGKINLE
notes: 693 amino acids, 80.5 kDa subunit; Assayed as produced in transgenic tobacco (T2 plant MI52E extract) and as an E. coli-derived positive control; both come from the same malA coding region; also called malA polypeptide; recombinant alpha-glucosidase
Consider B1, for which the binding result was “no binding”.
